In paper PMC4621513 one finds binding signal (% complex yield) data, which are given here for two substances.

The target of the series is APOBEC3G (A3G) (UniProt Q9HC16). Kind of series: AFM imaging. The conditions noted are these: protein:DNA 2:1, Force spectroscopy probing buffer: 50 mM HEPES, 100 mM NaCl, 5 mM MgCl2, 1 mM DTT (pH and temperature not given), imaging buffer not in the material.
Chain of APOBEC3G (A3G) (Q9HC16 whole entry): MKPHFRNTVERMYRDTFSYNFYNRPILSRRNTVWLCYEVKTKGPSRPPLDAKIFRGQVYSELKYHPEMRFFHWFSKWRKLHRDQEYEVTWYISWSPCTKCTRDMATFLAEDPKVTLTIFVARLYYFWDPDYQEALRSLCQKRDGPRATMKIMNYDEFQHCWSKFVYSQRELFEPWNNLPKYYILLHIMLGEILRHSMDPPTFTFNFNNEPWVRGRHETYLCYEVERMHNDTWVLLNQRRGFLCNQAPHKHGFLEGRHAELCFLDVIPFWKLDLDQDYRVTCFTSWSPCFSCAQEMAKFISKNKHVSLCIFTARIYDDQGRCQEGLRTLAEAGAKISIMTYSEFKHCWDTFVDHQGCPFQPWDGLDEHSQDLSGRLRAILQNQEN

Turning to “418 bp duplex with 69 nt nonspecific overhang”, the binding signal (% complex yield) (p = 0.12 vs specific (not significant)) amounted to 72.8.
For “418 bp duplex with 69 nt deaminase specific overhang”, the binding signal (% complex yield) came to 79.7.
